Source: US8703698B2, “Compositions and methods for treating atherosclerosis” (The University of Chicago, priority 2003, dated 2014)

Experiments:
THP-1 cells = test: Cholesterol efflux from cholesterol-laden human THP-1 cells; assay type: cell-based; conditions: liposomal formulations; cholesterol-laden THP-1 cells differentiated with phorbol myristate acetate
Method: These monocytes were differentiated into macrophages with phorbol myristate acetate (100 nM). In these experiments, cholesterol-laden human THP-1 cells were exposed to liposomal formulations comprising a peptide corresponding to amino acids 1-20 of murine SAA2.1 (SEQ ID NO:1), a peptide corresponding to amino acids 74-103 of murine SAA2.1 (SEQ ID NO:4), a peptide corresponding to amino acids 1-20 of murine SAA1.1 plus an arginine at the N-terminus (SEQ ID NO:7), or a peptide corresponding to amino acids 1-20 of murine SAA2.1 (SEQ ID NO:1) and a peptide corresponding to amino acids 74-103 (SEQ ID NO:4) of murine SAA2.1. Results from these experiments are depicted in FIG. 4. […] Studies were carried out to determine whether murine SAA2.1 increases cholesterol export from a human derived monocytic cell line, THP-1 (obtained from American Type Culture Collection, Manassas, Va.; ATCC#TIB-202). Human monocytes were cultured in T-75 flasks with 30 ml RPMI 1640 medium containing 2 mM L-glutamine, 4.5 g/L glucose, 10 mM HEPES, 1.0 mM […] and supplemented with 0.05 mM 2-mercaptoethanol and 10% fetal bovine serum. Subsequently, five million cells were placed in each well of a 6-well tissue culture plate. The monocytes were differentiated into macrophages by treatment with phorbol myristate acetate (100 nM). THP-1 macrophages were enriched with cholesterol by incubating with red blood cells membrane fragments (175 μg as cholesterol) that had been previously labelled with 0.5 μCi/mL[^3H]-cholesterol at 37° C. for 6 hours in 0.2% bovine serum albumin, followed by an overnight equilibration period. Cells were washed four times with PBS/BSA prior to efflux studies. Cells were then incubated at 37° C. with 2 mL RPMI-BSA containing 5% LPDS and 50 μg/mL of either native HDL, SAA-HDL, liposomes containing 2 μmoles of apoA-I, SAA1.1 or 2.1, or liposomes containing 0.5 μmoles synthetic peptides corresponding to amino acid residues 1-20 (SEQ ID NO:1), 21-50 (SEQ ID NO:2), 51-80 (SEQ ID NO:3) or 74-103 (SEQ ID NO:4) of murine SAA2.1. The efflux media were collected at 0, 1, 2, 4, 8, 16 and 24 hours, centrifuged to remove cell debris, and then used to measure the exported counts. […] A portion of the cells was lysed in 0.1N NaOH to estimate both the remaining radioactivity and the cellular protein content. Cellular lipids were extracted from the remaining portion of the cells and analyzed by thin-layer chromatography as described by Mendez et al. (J. Clin. Invest. 1994 94:1698-1705) and Oram et al. (Arterioscler. Thromb. 1991 11:403-414). The radioactivity in appropriate spots was measured to determine total cellular cholesterol counts. Efflux of radioactive label to the medium was calculated as the percentage of total counts (cell+medium counts) in each well.

[1] = target: T1, acyl CoA:cholesterol acyl transferase (Mus musculus, UniProt Q61263); conditions: intact murine macrophages and post-nuclear homogenates; Ely et al. 2001; cited from earlier work
T1 construct: The relative activity of acyl CoA:cholesterol acyl transferase was determined in cholesterol-laden cells; host or cells: J774 mouse macrophages, cholesterol-loaded
T1 sequence (Q61263 1-540): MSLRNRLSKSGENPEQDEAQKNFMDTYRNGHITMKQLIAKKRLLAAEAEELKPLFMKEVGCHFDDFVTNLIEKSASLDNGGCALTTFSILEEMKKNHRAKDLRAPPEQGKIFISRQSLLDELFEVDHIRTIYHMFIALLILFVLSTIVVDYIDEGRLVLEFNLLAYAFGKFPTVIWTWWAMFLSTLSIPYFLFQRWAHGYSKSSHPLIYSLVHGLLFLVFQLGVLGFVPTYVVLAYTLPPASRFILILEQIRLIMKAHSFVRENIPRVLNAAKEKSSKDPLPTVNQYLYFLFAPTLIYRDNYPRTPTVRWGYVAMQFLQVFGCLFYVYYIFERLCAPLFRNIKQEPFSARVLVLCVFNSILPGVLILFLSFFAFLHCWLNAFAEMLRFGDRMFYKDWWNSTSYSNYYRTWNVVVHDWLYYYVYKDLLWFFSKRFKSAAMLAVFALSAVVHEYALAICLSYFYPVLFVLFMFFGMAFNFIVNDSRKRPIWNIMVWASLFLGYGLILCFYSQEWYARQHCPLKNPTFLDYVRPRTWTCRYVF

[2] = tested on: cholesterol ester hydrolase; test: Rate of hydrolysis of cholesteryl ester in cholesterol-laden J774 cells (cholesterol ester hydrolase activity); assay type: cell-based, murine
Method: Identification of the domain of SAA2.1 that is responsible for enhancing cholesterol ester hydrolase activity was performed in J774 cells preloaded with radio-labeled cholesteryl esters. These experiments were performed in the presence of Sandoz 58-035, an inhibitor of acyl CoA:cholesterol acyl transferase activity, to prevent re-esterification of liberated cholesterol and [^14C]oleate. Incubations proceeded for times ranging from 0 to 24 hours, following which the remaining quantities of [^14C]-labeled cholesteryl oleate in cells were measured to determine the rate of hydrolysis of cholesteryl ester. […] However, an equivalent amount of liposomes containing the synthetic peptide corresponding to amino acid residues 74-103 of murine SAA2.1 caused a 3-fold increase in cholesterol ester hydrolase activity in these cholesterol-laden murine cells. Newly confluent J774 cells were labeled with [^14C]-oleate during cholesterol loading with red blood cell membranes as described above. Cells were then incubated for up to 24 hours with 2 mL of DMEM containing 5% LPDS and 50 μg/mL of either native HDL, SAA-HDL, liposomes containing 2 μmoles of apoA-1, SAA1.1 or 2.1, or liposomes containing 0.5:mol synthetic peptides corresponding to amino acid residues 1-20 (SEQ ID NO:1), 21-50 (SEQ ID NO:2), 51-80 (SEQ ID NO:3) and 74-103 (SEQ ID NO:4) of murine SAA2.1. To determine the rate of cholesteryl ester hydrolysis, 2 μg/mL of the acyl CoA:cholesterol acyl transferase inhibitor Sandoz 58-035 (propanimide, 3-(decyldimethylsilyl)-N-[2-(4-methylphenyl)-1-phenylethyl]-(9Cl) was added during incubation with lipoproteins or liposomes to prevent […] and free cholesterol. To examine whether or not the rate of cholesteryl ester hydrolysis involved the lysosomal cholesteryl ester hydrolase, the cells were cultured in the presence of 50 μg/mL of either native HDL and chloroquine or SAA-HDL and chloroquine (100:M). Chloroquine is an agent that neutralizes the lysosomal proton gradient. At various time points, cellular lipids were extracted and analyzed for cholesteryl ester radioactivity as described above.

J774 macrophages = test: Cholesterol efflux from cholesterol-laden J774 macrophages to apolipoprotein liposomes with 8-bromo-cAMP or methyl-β-cyclodextrin; assay type: cell-based, mouse; conditions: 8-bromo-cAMP 0.3 mM, 12 hours; Sandoz 58-035 present
Description: The export process of cholesterol is coupled to the ATP binding cassette transporter (ABCA1) pathway. Lipid efflux to apolipoproteins has been shown previously to be stimulated by treatment of murine macrophages with cAMP analogues (Lin et al. 2002 Biochem Biophys Res. Commun. 290:663-669; Oram et al. 2000 J. Biol. Chem. 275:34508-34511). Also, the expression of ABCA1 is induced by cAMP treatment (Lin et al. 2002 Biochem Biophys Res. Commun. 290:663-669; Oram et al. 2000 J. Biol. Chem. 275:34508-34511). The inventors herein examined the effect of 8-bromo-cAMP (0.3 mM) on cholesterol efflux by liposomes containing various apolipoproteins when incubated with cholesterol-laden J774 macrophages. Such cells were pre-labeled with [^3H]-cholesterol in the presence of Sandoz 58-035, an ACAT inhibitor, to ensure that all of the radiolabeled cholesterol released from the cells was derived from the un-esterified cholesterol pool, and the cells were treated for 12 hours with 8-bromo-cAMP. This was followed by incubation with various acceptors. The fractional release of cellular labeled cholesterol was determined as a function of time.
To investigate whether an apolipoprotein free cholesterol acceptor such as cyclodextrin has the ability to catalyze the removal of cholesterol from macrophages, cholesterol-loaded and labeled J774 cells were incubated with liposomes and methyl-β-cyclodextrin (0.1 mM) (CD).
To examine whether cholesterol export from J774 cells to medium containing liposomes containing 2 μM murine apoA-1, SAA1.1 or SAA2.1 is a cAMP-dependent process, the radio-labeled cholesterol-laden cells were incubated overnight with 8-Br-cAMP (0.3 mM), prior to the addition of liposomes containing 2 μM murine apoA-1, SAA1.1 or SAA2.1 to the culture medium. Cholesterol efflux to the medium was then determined at the indicated time points as described above. Efflux of radioactive label to the medium was calculated as a percentage of total counts in each well.

[3] = target: T1, acyl CoA:cholesterol acyl transferase; test: ACAT activity in macrophage post-nuclear homogenates; assay type: biochemical, murine; conditions: macrophage post-nuclear homogenates as enzyme source
Description: The in vitro effects of acute phase-HDL (AP-HDL;HDL-SAA) on acyl CoA:cholesterol acyl transferase and cholesterol ester hydrolase activities and on cellular cholesterol export were studied by the inventors using purified enzymes, cell homogenates, and whole cells. […] In contrast, murine SAA1.1 and apoA-1 had no effect. […] Using macrophages preloaded with radio-labeled cholesterol and injected intravenously into either inflamed or un-inflamed mice, it was shown that the inflamed mice, which have high SAA2.1 levels, effluxed cholesterol more rapidly and to a greater extent (6-fold greater) than their un-inflamed counterparts.

[4] = target: T1, acyl CoA:cholesterol acyl transferase; test: Incorporation of [14C]oleate into cholesteryl ester in cholesterol-laden macrophages (ACAT activity); assay type: cell-based, murine; conditions: lipoproteins or protein liposomes; tissue culture
Method: The incorporation of [^14C]oleate into cholesteryl ester was used as a measure of acyl CoA:cholesterol acyl transferase activity to identify compositions inhibiting the enzyme activity. The relative acyl CoA:cholesterol acyl transferase activity was determined in cholesterol-laden murine cells that had been cultured in medium in the absence of liposomes or in the presence of protein-free liposomes or liposomes containing 0.5 μM synthetic peptides corresponding to amino acids 1-20, 21-50, 51-80 and 74-103 of murine SAA2.1.
To load the cells with cholesterol, nearly confluent mono-layers were washed 3 times with phosphate buffered saline containing 2 mg/mL fatty acid-free bovine serum albumin (PBS-BSA) and incubated for 5 hours in DMEM supplemented with 5% lipoprotein-depleted serum (LPDS) (d>1.25 g/mL) and 175 μg of red blood cell membrane cholesterol. For the purpose of pool equilibration of added cholesterol, cell cultures were rinsed twice with PBS-BSA and incubated overnight in DMEM containing 5% LPDS. The relative activity of acyl CoA:cholesterol acyl transferase was determined in cholesterol-laden cells that had been cultured in medium containing no liposomes, protein-free liposomes or liposomes containing 0.5:M synthetic peptides corresponding to amino acid residues 1-20 (SEQ ID NO:1), 21-50 (SEQ ID NO:2), 51-80 (SEQ ID NO:3) or 74-103 (SEQ ID NO:4) of murine SAA2.1, respectively. Following 3 hours incubation with the above media, [^14C]-oleate was added and the cells were incubated for another 3 hour period (Mendez et al. J. Clin. Invest. 1994 94:1698-1705; Oram et al. Arterioscler. Thromb. 1991 11:403-414). Cells were chilled on ice and washed twice with PBS-BSA and twice with PBS. After addition of [^3H]-cholesteryl oleate (6000 dpm/well) as an internal standard, the lipids were extracted from the labeled cells and analyzed by thin-layer chromatography as described by Mendez et al. (J. Clin. Invest. 1994 94:1698-1705) and Oram et al. (Arterioscler. Thromb. 1991 11:403-414). The radioactivity in appropriate spots was measured to determine the incorporation of radioactivity into cholesteryl esters as a measure of acyl CoA:cholesterol acyl transferase activity.

GFFSFIGEAFQGAGDMWRAY [SEQ ID NO:5, synthetic peptide, residues 1-20 of murine SAA1.1]
cholesterol efflux, time course (FIG. 4) (THP-1 cells): inactive

GFFSFVHEAFQGAGDM [murine SAA2.11-16, 16-mer released by cyanogen bromide cleavage of murine SAA2.1, residues 1-16, reference compound]
macrophage ACAT activity [1]: profound effect inhibiting ACAT activity in a dose-dependent manner
effect on cholesterol ester hydrolase activity ([2]; fragment released by cyanogen bromide cleavage): produced no effect

RGFFSFIGEAFQGAGDMWRAY [SEQ ID NO:7, residues 1-20 of murine SAA1.1 plus an arginine at the N-terminus]
cholesterol efflux, time course (FIG. 4) (THP-1 cells): effectively increased cholesterol efflux

B1: apoA-1: apolipoprotein isolated from acute phase murine plasma, reconstituted in liposomes (protein, UniProt Q00623 25-264, looked up)
Apolipoprotein A-I: DEPQSQWDKVKDFANVYVDAVKDSGRDYVSQFESSSLGQQLNLNLLENWDTLGSTVSQLQERLGPLTRDFWDNLEKETDWVRQEMNKDLEEVKQKVQPYLDEFQKKWKEDVELYRQKVAPLGAELQESARQKLQELQGRLSPVAEEFRDRMRTHVDSLRTQLAPHSEQMRESLAQRLAELKSNPTLNEYHTRAKTHLKTLGEKARPALEDLRHSLMPMLETLKTQVQSVIDKASETLTAQ
modifications: reconstituted in liposomes
cholesterol ester hydrolase activity in intact cholesterol-laden macrophages ([2]; lipoproteins or protein liposomes, tissue culture): no effect on enzyme activities
increase in the initial rate of cholesterol efflux to liposomes after cAMP pre-treatment versus untreated cells (J774 macrophages): 32.7%
acyl CoA:cholesterol acyl transferase activity [3]: had no effect
acyl CoA:cholesterol acyl transferase activity in intact cholesterol-laden macrophages [4]: no effect on enzyme activities
